From patent US20200262877A1, “ION CHANNEL-BINDING PEPTIDES AND METHODS OF USE THEREOF” (priority 2017, published 2020)

What was measured:
GABA = test: Ion channel panel (IonWorks Barracuda): GABA; assay type: cell-based; conditions: 100% = no change, <100% = inhibition
How it was run: (§1)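 Transfected HEK293 or CHO cells were exposed for at least 5 min to peptides at 200 nM and 20 μM final, tested in duplicate, in HEPES-buffered physiological saline. Activation was taken as peptide-plus-agonist current over control current ×100, and inhibition as 1 minus that ratio ×100. Each channel's control was its own reference compound.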

TRPA1 = target: T1, TRPA1 (Homo sapiens, UniProt O75762); test: Ion channel panel (IonWorks Barracuda): TRPA1; assay type: cell-based; conditions: 100% = no change, <100% = inhibition
T1 construct: host or cells: HEK293 or CHO
How it was run: as §1

α4β2 = target: T2, α4β2 (Homo sapiens, UniProt P17787+P43681); test: Ion channel panel (IonWorks Barracuda): α4β2; assay type: cell-based; conditions: 100% = no change, <100% = inhibition
T2 construct: host or cells: HEK293 or CHO
How it was run: as §1

5HT3a = target: T3, 5HT3a (Homo sapiens, UniProt P46098); test: Ion channel panel (IonWorks Barracuda): 5HT3a; assay type: cell-based
T3 construct: host or cells: HEK293 or CHO
T3 sequence (P46098 whole entry, looked up): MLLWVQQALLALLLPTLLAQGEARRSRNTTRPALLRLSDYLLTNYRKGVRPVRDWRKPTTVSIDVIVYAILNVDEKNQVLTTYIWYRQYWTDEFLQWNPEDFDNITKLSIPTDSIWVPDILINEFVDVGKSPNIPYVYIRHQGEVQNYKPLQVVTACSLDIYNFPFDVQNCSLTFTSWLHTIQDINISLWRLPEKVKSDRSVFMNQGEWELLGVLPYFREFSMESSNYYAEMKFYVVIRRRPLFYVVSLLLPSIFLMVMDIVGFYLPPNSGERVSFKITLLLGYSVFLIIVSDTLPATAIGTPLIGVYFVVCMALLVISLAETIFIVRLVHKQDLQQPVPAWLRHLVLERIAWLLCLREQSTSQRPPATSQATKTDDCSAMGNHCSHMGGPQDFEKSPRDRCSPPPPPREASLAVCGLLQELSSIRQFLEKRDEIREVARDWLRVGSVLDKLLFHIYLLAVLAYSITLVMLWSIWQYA
How it was run: as §1

Kv1.1 = target: T4, Kv1.1 (Homo sapiens, UniProt Q09470); test: cell-based; assay type: cell-based; conditions: 100% = no change, <100% = inhibition
T4 construct: host or cells: HEK293 or CHO
How it was run: as §1

Kv1.2 = target: T5, Kv1.2 (Homo sapiens, UniProt P16389); test: cell-based; assay type: cell-based; conditions: 100% = no change, <100% = inhibition
T5 construct: host or cells: HEK293 or CHO
How it was run: as §1

Kv1.3 = target: T6, Kv1.3 (Homo sapiens, UniProt P22001); test: cell-based; assay type: cell-based; conditions: 100% = no change, <100% = inhibition
T6 construct: host or cells: HEK293 or CHO
How it was run: as §1

α3β4 = target: T7, α3β4 (Homo sapiens, UniProt P30926+P32297); test: Ion channel panel (IonWorks Barracuda): α3β4; assay type: cell-based; conditions: 100% = no change, <100% = inhibition
T7 construct: host or cells: HEK293 or CHO
How it was run: as §1

NR2B = target: T8, NR2B (Homo sapiens, UniProt Q13224); test: Ion channel panel (IonWorks Barracuda): NR2B; assay type: cell-based; conditions: 100% = no change, <100% = inhibition
T8 construct: host or cells: HEK293 or CHO
How it was run: as §1

Cav2.2 = target: T9, Cav2.2 (Homo sapiens, UniProt Q00975); test: cell-based; conditions: 100% = no change, <100% = inhibition
T9 construct: host or cells: HEK293 or CHO
How it was run: as §1

Kv2.1 = target: T10, Kv2.1 (Homo sapiens, UniProt Q14721); test: cell-based; conditions: 100% = no change, <100% = inhibition
T10 construct: host or cells: HEK293 or CHO
How it was run: as §1

Cav2.1 = target: T11, Cav2.1 (Homo sapiens, UniProt O00555); test: cell-based; conditions: 100% = no change, <100% = inhibition
T11 construct: host or cells: HEK293 or CHO
How it was run: as §1

Kir2.1 = target: T12, Kir2.1 (Homo sapiens, UniProt P63252); test: Ion channel panel (IonWorks Barracuda): Kir2.1; assay type: cell-based; conditions: 100% = no change, <100% = inhibition
T12 construct: host or cells: HEK293 or CHO
How it was run: as §1

hERG = hERG (Homo sapiens, UniProt Q12809); test: in vitro; conditions: 100% = no change, <100% = inhibition
How it was run: as §1

Nav1.5 = Nav1.5 (Homo sapiens, UniProt Q14524); test: in vitro; conditions: 100% = no change; for Activity of Nav1.5 with peptide, expressed as a percentage of the reference compound: peptide at 0.2 μM; for Activity of Nav1.5 with peptide (percentage of the reference compound): peptide at 20 μM
How it was run: as §1

Nav1.7 = target: T13, Nav1.7 (Homo sapiens, UniProt Q15858); test: cell-based; assay type: cell-based; conditions: 100% = no change; for Activity of Nav1.7 with peptide, expressed as a percentage of the reference compound: peptide at 0.2 μM; for Activity of Nav1.7 with peptide (percentage of the reference compound): peptide at 20 μM
T13 construct: host or cells: HEK293 or CHO

NR2A = target: T14, NR2A (Homo sapiens, UniProt Q12879); test: Ion channel panel (IonWorks Barracuda): NR2A; assay type: cell-based; conditions: 100% = no change, <100% = inhibition
T14 construct: host or cells: HEK293 or CHO
How it was run: as §1

TRPV1 = target: T15, TRPV1 (Homo sapiens, UniProt Q8NER1); test: Ion channel panel (IonWorks Barracuda): TRPV1; assay type: cell-based; conditions: 100% = no change, <100% = inhibition
T15 construct: host or cells: HEK293 or CHO
How it was run: as §1

[1] = first of two Nav1.5 columns (probably TP1)
[2] = second of two Nav1.5 columns (probably TP2)
[3] = first of two Nav1.7 columns (probably TP1)
[4] = second of two Nav1.7 columns (probably TP2)

T13 sequence (Q15858 whole entry): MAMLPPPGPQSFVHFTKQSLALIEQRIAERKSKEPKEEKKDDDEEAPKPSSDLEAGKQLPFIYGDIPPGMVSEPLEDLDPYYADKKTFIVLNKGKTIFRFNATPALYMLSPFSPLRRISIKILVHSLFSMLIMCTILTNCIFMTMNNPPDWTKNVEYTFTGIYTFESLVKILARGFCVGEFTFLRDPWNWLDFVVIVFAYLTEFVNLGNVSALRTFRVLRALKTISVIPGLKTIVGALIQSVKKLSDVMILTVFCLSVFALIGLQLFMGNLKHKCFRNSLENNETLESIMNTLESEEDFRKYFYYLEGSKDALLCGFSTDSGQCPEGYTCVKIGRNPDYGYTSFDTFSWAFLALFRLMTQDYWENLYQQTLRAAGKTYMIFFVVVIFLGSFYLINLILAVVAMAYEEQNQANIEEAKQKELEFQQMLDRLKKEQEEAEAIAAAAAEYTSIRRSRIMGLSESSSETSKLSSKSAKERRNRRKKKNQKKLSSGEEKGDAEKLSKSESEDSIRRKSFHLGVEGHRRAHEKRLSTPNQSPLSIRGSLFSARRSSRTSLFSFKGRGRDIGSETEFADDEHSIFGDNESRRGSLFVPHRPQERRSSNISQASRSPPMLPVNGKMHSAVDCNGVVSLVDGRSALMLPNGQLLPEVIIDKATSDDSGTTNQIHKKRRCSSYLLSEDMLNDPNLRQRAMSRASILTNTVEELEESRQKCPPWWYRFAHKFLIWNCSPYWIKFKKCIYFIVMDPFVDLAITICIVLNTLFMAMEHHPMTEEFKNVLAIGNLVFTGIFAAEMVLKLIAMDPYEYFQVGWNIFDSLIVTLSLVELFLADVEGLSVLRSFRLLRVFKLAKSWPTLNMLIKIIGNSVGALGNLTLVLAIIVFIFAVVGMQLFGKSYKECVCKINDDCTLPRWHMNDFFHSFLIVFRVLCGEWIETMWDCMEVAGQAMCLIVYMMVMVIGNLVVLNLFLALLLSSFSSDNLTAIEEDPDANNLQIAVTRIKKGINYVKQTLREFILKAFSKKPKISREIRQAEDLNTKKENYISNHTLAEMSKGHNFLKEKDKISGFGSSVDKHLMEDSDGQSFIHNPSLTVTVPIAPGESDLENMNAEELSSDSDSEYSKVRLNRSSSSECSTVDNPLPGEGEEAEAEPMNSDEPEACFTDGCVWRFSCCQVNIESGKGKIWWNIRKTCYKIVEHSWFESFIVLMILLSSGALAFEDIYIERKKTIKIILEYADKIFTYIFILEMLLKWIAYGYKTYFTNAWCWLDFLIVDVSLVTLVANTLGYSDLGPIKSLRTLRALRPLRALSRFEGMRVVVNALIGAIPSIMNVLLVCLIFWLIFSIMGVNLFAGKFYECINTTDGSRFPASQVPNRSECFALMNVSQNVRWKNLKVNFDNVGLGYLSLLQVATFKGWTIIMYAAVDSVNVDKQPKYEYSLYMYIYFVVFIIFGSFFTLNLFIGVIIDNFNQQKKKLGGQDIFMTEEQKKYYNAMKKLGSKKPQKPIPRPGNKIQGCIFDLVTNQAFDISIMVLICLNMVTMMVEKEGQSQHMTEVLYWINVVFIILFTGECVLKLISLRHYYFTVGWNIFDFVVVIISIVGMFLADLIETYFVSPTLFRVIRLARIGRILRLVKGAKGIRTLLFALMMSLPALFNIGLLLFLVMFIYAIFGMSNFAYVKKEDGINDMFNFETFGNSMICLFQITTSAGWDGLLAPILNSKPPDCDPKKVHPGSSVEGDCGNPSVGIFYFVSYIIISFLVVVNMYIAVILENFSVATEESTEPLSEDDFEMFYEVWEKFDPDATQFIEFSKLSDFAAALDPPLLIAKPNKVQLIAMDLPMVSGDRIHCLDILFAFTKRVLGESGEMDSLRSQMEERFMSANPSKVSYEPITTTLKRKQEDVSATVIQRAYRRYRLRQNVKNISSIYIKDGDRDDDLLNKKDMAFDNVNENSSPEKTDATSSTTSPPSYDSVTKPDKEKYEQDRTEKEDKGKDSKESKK
Nav1.5, sequence (Q14524 whole entry): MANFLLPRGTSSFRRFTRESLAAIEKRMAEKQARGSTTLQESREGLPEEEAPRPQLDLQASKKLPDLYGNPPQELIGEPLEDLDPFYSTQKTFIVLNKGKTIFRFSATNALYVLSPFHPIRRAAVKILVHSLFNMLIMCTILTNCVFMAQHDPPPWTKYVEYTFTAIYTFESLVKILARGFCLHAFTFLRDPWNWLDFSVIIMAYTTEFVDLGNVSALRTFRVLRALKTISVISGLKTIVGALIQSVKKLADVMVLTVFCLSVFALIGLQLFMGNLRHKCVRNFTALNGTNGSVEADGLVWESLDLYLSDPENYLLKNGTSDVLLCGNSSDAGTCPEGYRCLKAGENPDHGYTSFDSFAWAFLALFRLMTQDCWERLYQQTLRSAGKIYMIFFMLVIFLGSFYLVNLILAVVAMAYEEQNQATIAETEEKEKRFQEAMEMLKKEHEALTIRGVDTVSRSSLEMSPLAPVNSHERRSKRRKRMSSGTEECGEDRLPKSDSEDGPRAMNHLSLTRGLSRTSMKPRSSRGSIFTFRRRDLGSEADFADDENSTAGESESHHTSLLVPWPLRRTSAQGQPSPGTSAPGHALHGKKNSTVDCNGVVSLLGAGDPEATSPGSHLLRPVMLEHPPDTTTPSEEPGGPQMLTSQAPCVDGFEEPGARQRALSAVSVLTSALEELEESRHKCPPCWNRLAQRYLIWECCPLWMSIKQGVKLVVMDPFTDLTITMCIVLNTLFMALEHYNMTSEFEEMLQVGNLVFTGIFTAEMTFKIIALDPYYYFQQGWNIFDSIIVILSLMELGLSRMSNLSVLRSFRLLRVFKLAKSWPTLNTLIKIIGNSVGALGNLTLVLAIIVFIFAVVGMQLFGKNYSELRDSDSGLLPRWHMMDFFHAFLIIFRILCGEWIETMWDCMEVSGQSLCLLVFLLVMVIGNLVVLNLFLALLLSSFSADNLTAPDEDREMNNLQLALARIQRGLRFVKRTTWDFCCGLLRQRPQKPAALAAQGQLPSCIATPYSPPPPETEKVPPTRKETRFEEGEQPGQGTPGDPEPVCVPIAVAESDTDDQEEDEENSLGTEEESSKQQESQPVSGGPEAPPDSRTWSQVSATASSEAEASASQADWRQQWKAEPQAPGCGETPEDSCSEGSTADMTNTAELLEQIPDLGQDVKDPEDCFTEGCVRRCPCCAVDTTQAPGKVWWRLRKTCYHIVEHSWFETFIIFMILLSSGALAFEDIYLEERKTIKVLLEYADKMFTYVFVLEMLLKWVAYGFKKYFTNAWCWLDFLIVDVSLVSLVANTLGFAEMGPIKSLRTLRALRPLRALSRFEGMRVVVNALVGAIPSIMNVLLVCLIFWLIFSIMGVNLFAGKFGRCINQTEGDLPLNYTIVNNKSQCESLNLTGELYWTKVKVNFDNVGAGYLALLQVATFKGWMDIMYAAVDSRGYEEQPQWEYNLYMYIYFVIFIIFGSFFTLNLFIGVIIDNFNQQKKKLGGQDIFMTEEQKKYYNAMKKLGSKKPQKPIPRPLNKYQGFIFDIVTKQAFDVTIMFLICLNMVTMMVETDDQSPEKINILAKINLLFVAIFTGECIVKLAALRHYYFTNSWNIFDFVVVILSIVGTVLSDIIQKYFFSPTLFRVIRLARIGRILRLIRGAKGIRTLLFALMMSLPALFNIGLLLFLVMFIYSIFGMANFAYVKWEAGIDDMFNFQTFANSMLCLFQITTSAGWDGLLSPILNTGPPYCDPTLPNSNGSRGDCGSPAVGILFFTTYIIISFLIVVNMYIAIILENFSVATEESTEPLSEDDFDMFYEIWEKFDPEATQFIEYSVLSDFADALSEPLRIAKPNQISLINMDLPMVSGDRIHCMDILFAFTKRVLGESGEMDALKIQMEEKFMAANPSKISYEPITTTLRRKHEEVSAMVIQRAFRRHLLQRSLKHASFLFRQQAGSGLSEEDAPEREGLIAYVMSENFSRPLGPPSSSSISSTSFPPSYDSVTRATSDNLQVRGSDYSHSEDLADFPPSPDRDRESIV
T1 sequence (O75762 whole entry): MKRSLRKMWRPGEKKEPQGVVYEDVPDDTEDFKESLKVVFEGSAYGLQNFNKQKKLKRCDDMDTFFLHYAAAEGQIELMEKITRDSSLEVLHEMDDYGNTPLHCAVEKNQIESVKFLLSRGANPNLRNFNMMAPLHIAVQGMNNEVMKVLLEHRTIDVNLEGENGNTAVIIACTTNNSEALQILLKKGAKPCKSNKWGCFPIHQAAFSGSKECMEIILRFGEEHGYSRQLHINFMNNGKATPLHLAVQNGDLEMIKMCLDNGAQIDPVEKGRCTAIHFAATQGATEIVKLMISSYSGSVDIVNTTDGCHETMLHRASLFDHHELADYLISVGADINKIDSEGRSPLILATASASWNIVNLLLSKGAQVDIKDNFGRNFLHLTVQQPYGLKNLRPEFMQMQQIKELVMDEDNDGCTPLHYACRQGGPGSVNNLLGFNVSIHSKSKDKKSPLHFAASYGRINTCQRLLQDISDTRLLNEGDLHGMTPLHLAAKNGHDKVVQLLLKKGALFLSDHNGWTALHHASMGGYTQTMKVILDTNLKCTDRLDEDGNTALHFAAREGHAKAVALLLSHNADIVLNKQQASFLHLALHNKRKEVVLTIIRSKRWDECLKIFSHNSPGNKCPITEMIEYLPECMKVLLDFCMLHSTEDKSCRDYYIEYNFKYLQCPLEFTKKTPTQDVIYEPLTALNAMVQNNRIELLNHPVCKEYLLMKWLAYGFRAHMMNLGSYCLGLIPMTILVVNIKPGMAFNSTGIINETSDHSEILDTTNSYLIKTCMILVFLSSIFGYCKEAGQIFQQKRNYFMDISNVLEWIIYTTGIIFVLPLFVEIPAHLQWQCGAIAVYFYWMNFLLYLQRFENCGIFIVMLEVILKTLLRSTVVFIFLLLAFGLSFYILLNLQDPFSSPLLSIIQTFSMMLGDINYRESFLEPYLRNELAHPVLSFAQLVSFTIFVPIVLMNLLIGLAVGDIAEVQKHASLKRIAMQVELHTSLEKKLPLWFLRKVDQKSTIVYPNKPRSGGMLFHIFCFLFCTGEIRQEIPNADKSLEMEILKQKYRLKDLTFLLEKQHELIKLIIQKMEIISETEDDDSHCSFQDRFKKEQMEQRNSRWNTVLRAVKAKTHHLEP

## 29 (GSVFINVKCRGSPECLPKCKEAIGKSAGKCMNGKCKCYP) [compound 29]
GABA; peptide at 0.2 μM
  Activity of GABA with peptide, expressed as a percentage of the reference compound: 123%
GABA; peptide at 20 μM
  Activity of GABA with peptide (percentage of the reference compound): 104%
TRPA1; peptide at 0.2 μM
  Activity of TRPA1 with peptide, expressed as a percentage of the reference compound: 89%
TRPA1; peptide at 20 μM
  Activity of TRPA1 with peptide (percentage of the reference compound): 109%
α4β2; peptide at 0.2 μM
  Activity of a4b2 with peptide, expressed as a percentage of the reference compound: 108%
α4β2; peptide at 20 μM
  Activity of a4b2 with peptide (percentage of the reference compound): 101%
5HT3a
  Activity of 5HT3a with peptide (percentage of the reference compound): 91%
  Activity of 5HT3a with peptide, expressed as a percentage of the reference compound: 122%
Kv1.1; peptide at 0.2 μM
  Activity of Kv1.1 with peptide, expressed as a percentage of the reference compound: 97%
Kv1.1; peptide at 20 μM
  Activity of Kv1.1 with peptide (percentage of the reference compound): 64%
Kv1.2; peptide at 0.2 μM
  Activity of Kv1.2 with peptide, expressed as a percentage of the reference compound: 77%
Kv1.2; peptide at 20 μM
  Activity of Kv1.2 with peptide (percentage of the reference compound): 42%
Kv1.3; peptide at 0.2 μM
  Activity of Kv1.3 with peptide, expressed as a percentage of the reference compound: 21%
Kv1.3; peptide at 20 μM
  Activity of Kv1.3 with peptide (percentage of the reference compound): 0%
α3β4; peptide at 0.2 μM
  Activity of a3b4 with peptide, expressed as a percentage of the reference compound: 108%
α3β4; peptide at 20 μM
  Activity of a3b4 with peptide (percentage of the reference compound): 98%
NR2B; peptide at 0.2 μM
  Activity of NR2B with peptide, expressed as a percentage of the reference compound: 101%
NR2B; peptide at 20 μM
  Activity of NR2B with peptide (percentage of the reference compound): 82%
Cav2.2; peptide at 0.2 μM
  Activity of Cav2.2 with peptide, expressed as a percentage of the reference compound: 116%
Cav2.2; peptide at 20 μM
  Activity of Cav2.2 with peptide (percentage of the reference compound): 100%
Kv2.1; peptide at 0.2 μM
  Activity of Kv2.1 with peptide, expressed as a percentage of the reference compound: 91%
Kv2.1; peptide at 20 μM
  Activity of Kv2.1 with peptide (percentage of the reference compound): 121%
Cav2.1; peptide at 0.2 μM
  Activity of Cav2.1 with peptide, expressed as a percentage of the reference compound: 100%
Cav2.1; peptide at 20 μM
  Activity of Cav2.1 with peptide (percentage of the reference compound): 111%
Kir2.1; peptide at 0.2 μM
  Activity of Kir2.1 with peptide, expressed as a percentage of the reference compound: 103%
Kir2.1; peptide at 20 μM
  Activity of Kir2.1 with peptide (percentage of the reference compound): 97%
hERG; peptide at 0.2 μM
  Activity of hERG with peptide, expressed as a percentage of the reference compound: 95%
hERG; peptide at 20 μM
  Activity of hERG with peptide (percentage of the reference compound): 78%
Nav1.5; [1]
  Activity of Nav1.5 with peptide, expressed as a percentage of the reference compound: 110%
  Activity of Nav1.5 with peptide (percentage of the reference compound): 103%
Nav1.5; [2]
  Activity of Nav1.5 with peptide, expressed as a percentage of the reference compound: 114%
  Activity of Nav1.5 with peptide (percentage of the reference compound): 99%
Nav1.7; [3]
  Activity of Nav1.7 with peptide, expressed as a percentage of the reference compound: 97%
  Activity of Nav1.7 with peptide (percentage of the reference compound): 67%
Nav1.7; [4]
  Activity of Nav1.7 with peptide, expressed as a percentage of the reference compound: 111%
  Activity of Nav1.7 with peptide (percentage of the reference compound): 62%
NR2A; peptide at 0.2 μM
  Activity of NR2A with peptide, expressed as a percentage of the reference compound: 93%
NR2A; peptide at 20 μM
  Activity of NR2A with peptide (percentage of the reference compound): 87%
TRPV1; peptide at 0.2 μM
  Activity of TRPV1 with peptide, expressed as a percentage of the reference compound: 109%
TRPV1; peptide at 20 μM
  Activity of TRPV1 with peptide (percentage of the reference compound): 86%
